Data on one molecule can be found in paper PMC3946054 (Structure (London, England : 1993), 2013).

Like-named read-outs stand apart in the source and are kept apart here.

For test [1], the target named is T1, SCaMC-1 transmembrane domain (TMD), residues 185-477, incorporated in POPC/POPG/cardiolipin liposomes (human, UniProt Q6NUK1 185-477).
T1 sequence (looked up): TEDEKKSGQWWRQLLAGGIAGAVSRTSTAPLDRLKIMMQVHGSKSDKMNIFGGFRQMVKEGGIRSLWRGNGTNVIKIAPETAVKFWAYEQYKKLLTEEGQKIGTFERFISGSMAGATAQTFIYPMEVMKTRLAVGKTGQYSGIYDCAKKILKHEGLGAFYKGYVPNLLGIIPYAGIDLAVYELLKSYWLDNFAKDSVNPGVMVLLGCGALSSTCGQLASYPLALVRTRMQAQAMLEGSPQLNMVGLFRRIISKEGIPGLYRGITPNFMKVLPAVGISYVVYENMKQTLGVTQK
The test is described as follows: SPR. Background: SPR reads the build-up and loss of mass on a sensor chip optically.

Test [2] deals with T1, SCaMC-1 transmembrane domain (TMD), …. The test is described as follows: SPR. The source holds these as a separate data set.

B1: Human SCaMC-1 N-terminal domain (NTD), residues 1-193 (domain or fragment, UniProt Q6NUK1 1-193, looked up)
chain: MLRWLRDFVLPTAACQDAEQPTRYETLFQALDRNGDGVVDIGELQEGLRNLGIPLGQDAEEKIFTTGDVNKDGKLDFEEFMKYLKDHEKKMKLAFKSLDKNNDGKIEASEIVQSLQTLGLTISEQQAELILQSIDVDGTMTVDWNEWRDYFLFNPVTDIEEIIRFWKHSTGIDIGDSLTIPDEFTEDEKKSGQ
For B1, the values for the Kd in test [1] and in test [2] were 250 µM and 5.6 mM, respectively.

What is called Kd is the equilibrium constant for the complex coming apart. Lower therefore signals tighter binding.
